These are literature values, as cited in article PMC4125468.

Broadly, the pKd is −log10 of the Kd, conventionally taken in molar units.

Series [1] has as its target sCD14 (Homo sapiens) (UniProt P08571).
Series [2] has as its target MD-2 (Homo sapiens) (UniProt Q9Y6Y9). The experiment in a line: radioligand binding.
Series [3] has the same target.

pKd: −log10 of the molar value. Where two headings read alike, the source gives them in different places.

Chain of UniProt P08571 (P08571 20-345): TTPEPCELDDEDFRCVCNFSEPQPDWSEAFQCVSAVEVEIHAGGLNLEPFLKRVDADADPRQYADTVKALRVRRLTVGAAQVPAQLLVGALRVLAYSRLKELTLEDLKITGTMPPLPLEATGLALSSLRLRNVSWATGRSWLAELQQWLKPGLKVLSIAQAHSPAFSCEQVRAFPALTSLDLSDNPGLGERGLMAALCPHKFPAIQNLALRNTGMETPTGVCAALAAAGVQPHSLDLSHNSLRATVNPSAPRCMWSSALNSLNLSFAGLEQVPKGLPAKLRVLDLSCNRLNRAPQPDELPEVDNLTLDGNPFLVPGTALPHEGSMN

As to MD-2/TLR4ECD ECD (from UniProt Q9Y6Y9), in series [1], the negative-log Kd (pKd) is 9.70.

Turning to TLR4 ECD (from UniProt O00206), the negative-log Kd (pKd) in series [2] is 9.30.

TLR4ECD ECD (from UniProt O00206): the pKd in series [3] is 9.70.
